# Measurements taken from article PMC3280929, “Engineered Trx2p industrial yeast strain protects glycolysis and fermentation proteins from oxidative carbonylation during biomass propagation” (Microbial Cell Factories, 2012).
# Several values for one entry are separate records, joined by “and”; a condition that tells them apart may be missing. Equal entries are not always repeated.
# B1: alcohol dehydrogenase I (Adh1p) (enzyme, S. cerevisiae (endogenous in strain T73), UniProt P00330 1-348, looked up)
# chain: MSIPETQKGVIFYESHGKLEYKDIPVPKPKANELLINVKYSGVCHTDLHAWHGDWPLPVKLPLVGGHEGAGVVVGMGENVKGWKIGDYAGIKWLNGSCMACEYCELGNESNCPHADLSGYTHDGSFQQYATADAVQAAHIPQGTDLAQVAPILCAGITVYKALKSANLMAGHWVAISGAAGGLGSLAVQYAKAMGYRVLGIDGGEGKEELFRSIGGEVFIDFTKEKDIVGAVLKATDGGAHGVINVSVSEAAIEASTRYVRANGTTVLVGMPAGAKCCSDVFNQVVKSISIVGSYVGNRADTREALDFFARGLVKSPIKVVGLSTLPEIYEKMEKGQIVGRYVVDTSK
# modifications: oxidative carbonylation of the dimer, tetramer and higher bands (residues not stated)
# notes: Alcohol dehydrogenase I (Adh1p) of Saccharomyces cerevisiae, subunit of approximately 37 kDa; Endogenous protein of an industrial wine strain; source: endogenous, S. cerevisiae wine strain T73 (and TTRX2), crude cell extracts
# Molecular target: the molecule itself
# Experiment: SDS-PAGE and anti-Adh1p western blot of SDS-resistant oligomers; crude extracts of T73 cells (dehydrated, grown 5 h in YPGF, or fresh with or without 5 mM glyoxal), 10% SDS-polyacrylamide gel under denaturing conditions, polyclonal anti-Adh1p
protein,measurement,value
B1,stoichiometry N,2 and 4
